Test results published in paper PMC6774396 (Frontiers in Immunology, 2019).

B1: WT: wild-type human L-selectin, C-terminally tagged with GFP or RFP, expressed in THP-1 cells (protein)
chain: WTYHYSEKPMNWQRARRFCRDNYTDLVAIQNKAEIEYLEKTLPFSRSYYWIGIRKIGGIWTWVGTNKSLTEEAENWGDGEPNNKKNKEDCVEIYIKRNKDAGKWNDDACHKLKAALCYTASCQPWSCSGHGECVEIINNYTCNCDVGYYGPQCQFVIQCEPLEAPELGTMDCTHPLGNFSFSSQCAFSCSEGTNLTGIEETTCGPFGNWSSPEPTCQVIQCEPLSAPDLGIMNCSHPLASFSFTSACTFICSEGTELIGKKKTICESSGIWSNPSPICQKLDKSFSMIKEGDYNPLFIPVAVMVTAFSGLAFIIWLARRLKKGKKSKRSMNDPY
modifications: left off: eGFP (donor copy) or mCherry (acceptor copy, called RFP), C-terminal, kept
B2: SSAA: L-selectin with Ser^364 and Ser^367 both mutated to alanines (protein)
chain: WTYHYSEKPMNWQRARRFCRDNYTDLVAIQNKAEIEYLEKTLPFSRSYYWIGIRKIGGIWTWVGTNKSLTEEAENWGDGEPNNKKNKEDCVEIYIKRNKDAGKWNDDACHKLKAALCYTASCQPWSCSGHGECVEIINNYTCNCDVGYYGPQCQFVIQCEPLEAPELGTMDCTHPLGNFSFSSQCAFSCSEGTNLTGIEETTCGPFGNWSSPEPTCQVIQCEPLSAPDLGIMNCSHPLASFSFTSACTFICSEGTELIGKKKTICESSGIWSNPSPICQKLDKSFSMIKEGDYNPLFIPVAVMVTAFSGLAFIIWLARRLKKGKKAKRAMNDPY
modifications: left off: eGFP (donor copy) or mCherry (acceptor copy, called RFP), C-terminal, kept

Experiments:
THP-1 cells = assay: Antibody-mediated clustering (AMC) of L-selectin-GFP/RFP, FLIM/FRET; type: cell-based, human; conditions: for change in FRET efficiency on AMC or versus comparator (in words) / FRET efficiency after AMC: DREG56 plus secondary antibody; for FRET efficiency after AMC: 10 min at 37°C, GFP/RFP pair
Description: (A) Schematic representation of the cleavage site, transmembrane domain (TMD), and cytoplasmic tail of human L-selectin. Red underlined region of the cleavage site denotes the amino acids that are deleted in ΔM-N L-selectin. […] Red arrow points to the position of the cut site of the L-selectin cleavage domain. (B) Cells expressing matched levels of L-selectin-GFP/RFP in the following forms: WT, ΔM-N, SSAA, ΔM-N^SSAA, and R357A were subjected to AMC using Alexa Fluor 647-conjugated DREG56 or isotype-matched control, followed by goat anti-mouse secondary antibody (see Materials and Methods for more detail). Cells were plated onto poly-L-lysine-coated coverslips and prepared for FLIM/FRET analysis (see materials and methods). FLIM was used to measure the FRET efficiency between the GFP/RFP donor/acceptor pairs as a direct function of cytoplasmic tail clustering […]. At least 45 individual cells were analyzed over 3 independent clustering assays. (C) Representative images are shown for each cell line. The lifetime of fluorescence (Lftm) is expressed in a pseudocolour scale from red (low lifetime with a very high probability of interaction) to blue (high lifetime with a very low probability of interaction). […] Cells were lysed directly in protein loading buffer (containing the reducing agent, dithiothreitol) and resolved onto standard (lower panel) or phos-tag (upper panel) polyacrylamide gels. Antibodies to GFP and RFP were used to, respectively, probe ΔM-N and ΔM-N^SSAA on Western blots. […] Statistics: One-Way ANOVA Tukey's multiple comparison test. **p ≤ 0.01; ***p ≤ 0.001; ****p ≤ 0.0001.
THP-1 cells were adjusted the night before AMC to a density of 0.5 ×10^6 cells per mL. On the same day, 13 mm diameter glass coverslips (thickness “1”) were placed into the base of a 24 well dish, spotted with 100 μL of poly-L-lysine (PLL) to immobilize according to manufacturer's instruction. On the day of the assay, THP-1 cells were counted and adjusted to a density of 1 ×10^6 per mL in 500 μL containing antibody labeling buffer (RPMI culture medium containing FcR block [Miltenyi Biotec]). Cells were labeled with 2 μg per mL DREG56 for 30 min at 4°C, followed by washing (by centrifugation at 300 g and resuspension) in ice cold culture media to remove excess unbound antibody and then incubated back in ice cold labeling buffer containing secondary antibody conjugated to Alexa Fluor […] (Thermo Fisher) for a further 30 min at 4°C. Cells were then washed twice in ice cold neat RPMI and resuspended to 100 μL of neat ice cold RPMI before 80 μL of the cell suspension was seeded onto 13 mm diameter glass coverslips (thickness = “1”), which were pre-coated with PLL-coated the night before. The seeded cells were placed into a humidified cell culture incubator at 37°C and 5% CO2 for 10 min to drive clustering. Adhered cells were flooded in excess 4% paraformaldehyde and fixed for 15 min at room temperature. Fixed coverslips were washed 3 times in PBS and then treated in 10 mg/mL of Sodium Borohydride dissolved in phosphate buffered saline for 10 min at room temperature (to eliminate autofluorescence and enhance signal to noise ratios). Coverslips were subsequently washed in PBS to remove sodium borohydride and mounted using DAKO mounting medium.
FLIM measurement of FRET was performed with a multiphoton microscope system as described previously ([8], [23]). A Nikon TE2000E inverted microscope, combined with an in-house scanner and Chameleon Ti:Sapphire ultrafast pulsed multiphoton laser (Coherent Inc.), was used for excitation of GFP (at 890 nm). Fluorescence lifetime imaging capability was provided by time-correlated, single-photon counting electronics (SPC 700; Becker & Hickl). A 40 × objective (NA 1.3) was used throughout (CFI60 Plan Fluor; Nikon), and data were acquired at 500 ± 20 nm through a bandpass filter (35–5040; Coherent Inc.). […]

[1] = tested on: THP-1 cells over TNF-α-activated HUVEC; assay: Pseudopod protrusion scoring in TEM under flow; type: cell-based, human; conditions: for cells with 2 protrusions / cells with 0 protrusions: 15 min time point, mean of 3 fields of view per flow experiment, three occasions, at least 180 cells per group, % printed; for cells with 2 protrusions: significance ** S367A p ≤ 0.01 (Tukey); for cells with 0 protrusions: significance *** S367A p ≤ 0.001, ** SSAA p ≤ 0.01 (Tukey)
Method: (A) The number of protrusions formed over this period was scored as: zero, one, two, or >2. (B) The percentages of cells bearing these protrusions were scored at specific time points: 6 min (blue bars), 15 min (green bars), or 25 min (red bars). Supplementary Videos 2, 3, 4 provide examples of cells producing a range of protrusions as TEM proceeds. Data represent SEM of 3 fields of view per flow experiment, conducted on three separate occasions, and at least 180 cells analyzed per group. Values of the vertical lines indicate the differences in protrusion number (specifically “zero” and “two”) corresponding to each of the cell lines, for which statistical significance is shown in Table 1.
All flow experiments were performed using a 35 mm diameter Glycotech parallel plate flow chamber. Perfusion experiments were performed at 1.5 dyn/cm^2 using a Harvard Apparatus 2000 PHD syringe pump. Perfusion media consisted of: RPMI supplemented with L-glutamine, 10% FCS, 1% penicillin/streptomycin, 50 μM β-mercaptoethanol, and 25 mM HEPES. Human Umbilical Vein Endothelial Cells (HUVEC–Lonza) were seeded onto 35 mm diameter glass coverslips (no. 1 thickness; VWR) that were pre-coated with 10 μg/mL fibronectin (37°C for at least 1 h). Before each perfusion assay, HUVEC were stimulated overnight (16 h) with 10 ng/mL carrier-free recombinant human TNF-α (R&D Systems). Each perfusion assay was performed by injecting a bolus of cells for 6 min, followed by just perfusion media (without cells) for the […]. THP-1 cells were perfused at a density of 0.5 ×10^6 cells per mL. THP-1 cells treated with 10 μM TAPI-0 required a preincubation time of 10 min at 37°C before perfusion over TNF-α-activated HUVEC. Note that 10 μM TAPI-0 was also supplemented in the perfusate. Stills were acquired once every 10 seconds using 10 × objective lens.

[2] = at least 45 cells, 3 independent assays

| Molecule | change in FRET efficiency on AMC or versus comparator (in words) (THP-1 cells) | FRET efficiency after AMC (THP-1 cells; [2]) | FRET efficiency without AMC (THP-1 cells; WT L-selectin-GFP/RFP before AMC (isotype-matched control), at least 45 cells, 3 independent assays) | cells with 2 protrusions [1] | cells with 0 protrusions [1] | protrusive activity profile in TEM (in words) ([1]; 6, 15 and 25 min of flow over TNF-α-activated HUVEC) |
| --- | --- | --- | --- | --- | --- | --- |
| B1 | significantly increased the FRET efficiency | 12.39% | 1.35% | 36.2% | 7.9% | – |
| B2 | modest but significant drop in FRET efficiency compared to WT L-selectin | 9.25% | – | 24.9% | 22.4^** % | phenocopied more the S367A than the S364A cell line |
